Consider one substance from US20200139098A1, “DELIVERY SYSTEM AND PROCESS” (POLYPHARMA PTY LTD, priority 2006, published 2020).

The series concerns rabbit eyes. Briefly: Distribution of Avastin in sectioned rabbit eyes by fluorescence and DIC microscopy, after intravitreal injection or sonophoresis from a hydrogel. Format: in vivo. The text has this:
As described above, the delivery system or device can be used to deliver molecules and/or nanoparticles to the eye of a patient. Once delivered to the surface of the eye, the molecules and/or nanoparticles can penetrate the outer surface of the eye and diffuse to the posterior parts of the eye. For example, FIGS. 14 to 19 are optical microscope images of sectioned rabbit eyes imaged by Differential Interference Contrast (DIC) phase contrast imaging and fluorescence imaging, illustrating the distribution of the monoclonal antibody Avastin to various parts of the eye. Each of these six Figures includes two panels, comprising a left-hand panel showing a fluorescence image, and a right-hand panel showing a white light DIC phase contrast image. FIGS. 14 to 16 illustrate the distribution of Avastin delivered by intravitreal injection, whereas FIGS. 17 to 19 show the distribution of Avastin delivered from a hydrogel by sonophoresis of five minute duration. The red colour in the fluorescence images indicates a secondary antibody bound to Avastin. Consequently, the red colour indicates the location of Avastin in the tissues of the eye.
The vitreous humor is not visible in the “white-light” DIC images because the sections are mounted on the slides using a 90% glycerol solution in order to stabilise the cover slip and the section during the confocal microscopy. The glycerol has a similar refractive index to the vitreous humor.

For “Avastin: the monoclonal antibody Avastin”, the “presence of Avastin in vitreous humor (staining)” value (rabbit eye (LE), Sonoactuator: hydrogel, sonophoresis of five minute duration) is reported as “not visibly stained”. For the same substance, the “presence of Avastin in vitreous (red staining)” value (rabbit eye (RE), intravitreal injection) is given as “abundant presence”. Further, where the note is “rabbit eye, delivery from the gel with ultrasound”, the “staining of ciliary body for Avastin” value is listed as “does not stain well”. Further, the “staining of ciliary body and iris for Avastin” value (rabbit eye, intravitreal injection) is recorded as “heavily stained”. Where the note is “rabbit eye, non-invasive delivery from hydrogel under ultrasonic stimulation (FIGS. 17 to 19)”, the “delivery of Avastin to choroid and retina” value was “non-invasively delivered to the choroid and retina”.
